What all share (assay): SPR (Biacore); KD of H240-Kn061/H240-Hl071/L73-k0 divided by KD of the variant
For orientation: SPR reads the build-up and loss of mass on a sensor chip optically.

The target in assay [1] is T1, FcgRIIIa F (FcγRIIIa type F) extracellular domain with C-terminal His tag (human, UniProt P08637 17-208).
T1 construct: extracellular domain; also called FcγRIIIa F; 3aF; not shown: His tag attached to the C terminus
The method, then:
(§1) The antibodies were assessed for the binding to each FcgR. […] The resultant value was defined as relative KD, and used as an assessment indicator.
(§2) Analysis of interaction between objective antibody and the FcγR was carried out using Biacore T100 (GE Healthcare), Biacore T200, Biacore A100, and Biacore 4000. HBS-EP+ (GE Healthcare) was used as the running buffer, and the measurement temperature was set to 25° C. Chips produced by immobilizing the antigen peptide by the amine coupling method to a Series S sensor Chip CM5 (GE Healthcare), chips produced by allowing preliminarily biotinylated antigen peptides to interact with and immobilize onto a Series S Sensor Chip SA (certified) (GE Healthcare), chips produced by immobilizing Protein L (ACTIGEN, BioVision) to Series S Sencor Chip CM5 (GE Healthcare), or chips produced by immobilizing Protein A/G (Thermo Scientific) to Series S Sencor Chip CM5 (GE Healthcare) were used. Antibodies of interest were captured onto these chips, and allowed to interact to each FcγR diluted with running buffer.

Assay [2] addresses T2, FcgRIIb (FcγRIIb) extracellular domain with C-terminal His tag (human, UniProt P31994 43-217).
T2 construct: extracellular domain; not shown: His tag attached to the C terminus
T2 sequence (looked up): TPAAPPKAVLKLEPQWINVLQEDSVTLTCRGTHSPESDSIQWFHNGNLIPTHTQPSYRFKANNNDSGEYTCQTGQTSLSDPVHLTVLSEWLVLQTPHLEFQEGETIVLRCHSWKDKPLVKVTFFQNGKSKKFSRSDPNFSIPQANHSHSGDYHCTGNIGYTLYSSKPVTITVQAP
On the procedure:
as §1, §2

Assay [3] concerns the target T3, FcgRIIIa V (FcγRIIIa type V) extracellular domain with C-terminal His tag (human, UniProt P08637 17-208).
T3 construct: extracellular domain; also called FcγRIIIa V; not shown: His tag attached to the C terminus
On the procedure:
as §1, §2

This is an account of results in patent US20150344570A1 (published 2015).

T3 sequence (P08637 17-208 F176V limits assumed): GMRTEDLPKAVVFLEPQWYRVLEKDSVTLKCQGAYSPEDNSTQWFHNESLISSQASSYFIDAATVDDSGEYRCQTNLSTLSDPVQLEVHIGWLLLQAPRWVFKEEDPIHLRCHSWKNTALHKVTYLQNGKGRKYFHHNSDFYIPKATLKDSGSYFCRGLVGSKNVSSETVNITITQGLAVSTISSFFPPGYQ
T1 sequence (P08637 17-208): as the sequence (P08637 17-208 F176V limits assumed) above, with V160F counted along it

B1: H240-Kn061/H240-Hl071/L73-k0 variant with W236Y in H240-Kn061 (antibody, human IgG1, kappa)
heavy 1: QDQLVQSGAEVKKPGASVKVSCKASGFNIKDTYIQWVRQAPGQGLEWMGRIDPLRKQTKYREKFEGRVTITADTSTNTAYMELSSLRSEDTAVYYCVRSGREFDYWGQGTLVTVSSASTKGPSVFPLAPSSKSTSGGTAALGCLVKDYFPEPVTVSWNSGALTSGVHTFPAVLQSSGLYSLSSVVTVPSSSLGTQTYICNVNHKPSNTKVDKKVEPKSCDKTHTCPPCPAPEYYYGPSVFLFPPKPKDTLMISRTPEVTCVVVDVSDEDPEVKFNWYVDGVEVHNAKTKPREEQYNATYRVVSVLTVLHQDWLNGKEYKCKVSNKALPAPIEKTISKAKGQPREPQVCTLPPSRDELTKNQVSLWCLVKGFYPSDIAVEWESNGQPENNYKTTPPVLDSDGSFFLYSKLTVDKSRWQQGNVFSCSVMHEALHNHYTQKSLSLSP
heavy 2: QDQLVQSGAEVKKPGASVKVSCKASGFNIKDTYIQWVRQAPGQGLEWMGRIDPLRKQTKYREKFEGRVTITADTSTNTAYMELSSLRSEDTAVYYCVRSGREFDYWGQGTLVTVSSASTKGPSVFPLAPSSKSTSGGTAALGCLVKDYFPEPVTVSWNSGALTSGVHTFPAVLQSSGLYSLSSVVTVPSSSLGTQTYICNVNHKPSNTKVDKKVEPKSCDKTHTCPPCPAPELLGGPSVFLFPPKPKDTLMISRTPEVTCVVVDVSHEDPEVKFNWYVDGVEVHNAKTKPREEQYNSTYRVVSVLTVLHQDWLNGKEYKCKVSNDALPMPIEETISKAKGQPREPQVYTLPPSRCELTKNQVSLSCAVKGFYPSDIAVEWESNGQPENNYKTTPPVLDSDGSFFLVSKLTVDKSRWQQGNVFSCSVMHEALHNHYTQKSLSLSP
light: DIQMTQSPSSLSASVGDRVTITCRASQDIHKYIAWYQQKPGQAPRLLIQYTSTLQPGVPSRFSGSGSGTDYTFTISSLQPEDIATYYCLQYEQLRTFGGGTKVEIKRTVAAPSVFIFPPSDEQLKSGTASVVCLLNNFYPREAKVQWKVDNALQSGNSQESVTEQDSKDSTYSLSSTLTLSKADYEKHKVYACEVTHQGLSSPVTKSFNRGEC
notes: anti-epiregulin heterodimerized IgG1; also called H240-Kn061 W236Y
As to B1, the “relative KD” value in assay [1] came to 0.8 ratio; in assay [2], 0.8 ratio; in assay [3], 1.2 ratio.

B2: H240-Kn061/H240-Hl071/L73-k0 variant with Y234A in H240-Kn061 (antibody, human IgG1, kappa)
heavy 1: QDQLVQSGAEVKKPGASVKVSCKASGFNIKDTYIQWVRQAPGQGLEWMGRIDPLRKQTKYREKFEGRVTITADTSTNTAYMELSSLRSEDTAVYYCVRSGREFDYWGQGTLVTVSSASTKGPSVFPLAPSSKSTSGGTAALGCLVKDYFPEPVTVSWNSGALTSGVHTFPAVLQSSGLYSLSSVVTVPSSSLGTQTYICNVNHKPSNTKVDKKVEPKSCDKTHTCPPCPAPEAYWGPSVFLFPPKPKDTLMISRTPEVTCVVVDVSDEDPEVKFNWYVDGVEVHNAKTKPREEQYNATYRVVSVLTVLHQDWLNGKEYKCKVSNKALPAPIEKTISKAKGQPREPQVCTLPPSRDELTKNQVSLWCLVKGFYPSDIAVEWESNGQPENNYKTTPPVLDSDGSFFLYSKLTVDKSRWQQGNVFSCSVMHEALHNHYTQKSLSLSP
heavy 2: QDQLVQSGAEVKKPGASVKVSCKASGFNIKDTYIQWVRQAPGQGLEWMGRIDPLRKQTKYREKFEGRVTITADTSTNTAYMELSSLRSEDTAVYYCVRSGREFDYWGQGTLVTVSSASTKGPSVFPLAPSSKSTSGGTAALGCLVKDYFPEPVTVSWNSGALTSGVHTFPAVLQSSGLYSLSSVVTVPSSSLGTQTYICNVNHKPSNTKVDKKVEPKSCDKTHTCPPCPAPELLGGPSVFLFPPKPKDTLMISRTPEVTCVVVDVSHEDPEVKFNWYVDGVEVHNAKTKPREEQYNSTYRVVSVLTVLHQDWLNGKEYKCKVSNDALPMPIEETISKAKGQPREPQVYTLPPSRCELTKNQVSLSCAVKGFYPSDIAVEWESNGQPENNYKTTPPVLDSDGSFFLVSKLTVDKSRWQQGNVFSCSVMHEALHNHYTQKSLSLSP
light: DIQMTQSPSSLSASVGDRVTITCRASQDIHKYIAWYQQKPGQAPRLLIQYTSTLQPGVPSRFSGSGSGTDYTFTISSLQPEDIATYYCLQYEQLRTFGGGTKVEIKRTVAAPSVFIFPPSDEQLKSGTASVVCLLNNFYPREAKVQWKVDNALQSGNSQESVTEQDSKDSTYSLSSTLTLSKADYEKHKVYACEVTHQGLSSPVTKSFNRGEC
notes: anti-epiregulin heterodimerized IgG1; also called H240-Kn061 Y234A
B2: the “relative KD” value in assay [1] was 0.8 ratio; in assay [2], 1.2 ratio; in assay [3] it was 0.9 ratio.

B3: H240-Kn061/H240-Hl071/L73-k0 variant with Y234H in H240-Kn061 (antibody, human IgG1, kappa)
heavy 1: QDQLVQSGAEVKKPGASVKVSCKASGFNIKDTYIQWVRQAPGQGLEWMGRIDPLRKQTKYREKFEGRVTITADTSTNTAYMELSSLRSEDTAVYYCVRSGREFDYWGQGTLVTVSSASTKGPSVFPLAPSSKSTSGGTAALGCLVKDYFPEPVTVSWNSGALTSGVHTFPAVLQSSGLYSLSSVVTVPSSSLGTQTYICNVNHKPSNTKVDKKVEPKSCDKTHTCPPCPAPEHYWGPSVFLFPPKPKDTLMISRTPEVTCVVVDVSDEDPEVKFNWYVDGVEVHNAKTKPREEQYNATYRVVSVLTVLHQDWLNGKEYKCKVSNKALPAPIEKTISKAKGQPREPQVCTLPPSRDELTKNQVSLWCLVKGFYPSDIAVEWESNGQPENNYKTTPPVLDSDGSFFLYSKLTVDKSRWQQGNVFSCSVMHEALHNHYTQKSLSLSP
heavy 2: QDQLVQSGAEVKKPGASVKVSCKASGFNIKDTYIQWVRQAPGQGLEWMGRIDPLRKQTKYREKFEGRVTITADTSTNTAYMELSSLRSEDTAVYYCVRSGREFDYWGQGTLVTVSSASTKGPSVFPLAPSSKSTSGGTAALGCLVKDYFPEPVTVSWNSGALTSGVHTFPAVLQSSGLYSLSSVVTVPSSSLGTQTYICNVNHKPSNTKVDKKVEPKSCDKTHTCPPCPAPELLGGPSVFLFPPKPKDTLMISRTPEVTCVVVDVSHEDPEVKFNWYVDGVEVHNAKTKPREEQYNSTYRVVSVLTVLHQDWLNGKEYKCKVSNDALPMPIEETISKAKGQPREPQVYTLPPSRCELTKNQVSLSCAVKGFYPSDIAVEWESNGQPENNYKTTPPVLDSDGSFFLVSKLTVDKSRWQQGNVFSCSVMHEALHNHYTQKSLSLSP
light: DIQMTQSPSSLSASVGDRVTITCRASQDIHKYIAWYQQKPGQAPRLLIQYTSTLQPGVPSRFSGSGSGTDYTFTISSLQPEDIATYYCLQYEQLRTFGGGTKVEIKRTVAAPSVFIFPPSDEQLKSGTASVVCLLNNFYPREAKVQWKVDNALQSGNSQESVTEQDSKDSTYSLSSTLTLSKADYEKHKVYACEVTHQGLSSPVTKSFNRGEC
notes: anti-epiregulin heterodimerized IgG1; also called H240-Kn061 Y234H
On to B3, for which the “relative KD” value in assay [1] came out at 0.8 ratio; in assay [2], 1.3 ratio; in assay [3], 0.9 ratio.

B4: H240-Kn061/H240-Hl071/L73-k0 variant with Y234G in H240-Kn061 (antibody, human IgG1, kappa)
heavy 1: QDQLVQSGAEVKKPGASVKVSCKASGFNIKDTYIQWVRQAPGQGLEWMGRIDPLRKQTKYREKFEGRVTITADTSTNTAYMELSSLRSEDTAVYYCVRSGREFDYWGQGTLVTVSSASTKGPSVFPLAPSSKSTSGGTAALGCLVKDYFPEPVTVSWNSGALTSGVHTFPAVLQSSGLYSLSSVVTVPSSSLGTQTYICNVNHKPSNTKVDKKVEPKSCDKTHTCPPCPAPEGYWGPSVFLFPPKPKDTLMISRTPEVTCVVVDVSDEDPEVKFNWYVDGVEVHNAKTKPREEQYNATYRVVSVLTVLHQDWLNGKEYKCKVSNKALPAPIEKTISKAKGQPREPQVCTLPPSRDELTKNQVSLWCLVKGFYPSDIAVEWESNGQPENNYKTTPPVLDSDGSFFLYSKLTVDKSRWQQGNVFSCSVMHEALHNHYTQKSLSLSP
heavy 2: QDQLVQSGAEVKKPGASVKVSCKASGFNIKDTYIQWVRQAPGQGLEWMGRIDPLRKQTKYREKFEGRVTITADTSTNTAYMELSSLRSEDTAVYYCVRSGREFDYWGQGTLVTVSSASTKGPSVFPLAPSSKSTSGGTAALGCLVKDYFPEPVTVSWNSGALTSGVHTFPAVLQSSGLYSLSSVVTVPSSSLGTQTYICNVNHKPSNTKVDKKVEPKSCDKTHTCPPCPAPELLGGPSVFLFPPKPKDTLMISRTPEVTCVVVDVSHEDPEVKFNWYVDGVEVHNAKTKPREEQYNSTYRVVSVLTVLHQDWLNGKEYKCKVSNDALPMPIEETISKAKGQPREPQVYTLPPSRCELTKNQVSLSCAVKGFYPSDIAVEWESNGQPENNYKTTPPVLDSDGSFFLVSKLTVDKSRWQQGNVFSCSVMHEALHNHYTQKSLSLSP
light: DIQMTQSPSSLSASVGDRVTITCRASQDIHKYIAWYQQKPGQAPRLLIQYTSTLQPGVPSRFSGSGSGTDYTFTISSLQPEDIATYYCLQYEQLRTFGGGTKVEIKRTVAAPSVFIFPPSDEQLKSGTASVVCLLNNFYPREAKVQWKVDNALQSGNSQESVTEQDSKDSTYSLSSTLTLSKADYEKHKVYACEVTHQGLSSPVTKSFNRGEC
notes: anti-epiregulin heterodimerized IgG1; also called H240-Kn061 Y234G
In the case of B4, the results for the “relative KD” value in assay [1], in assay [2] and in assay [3] were 0.8 ratio, 0.9 ratio and 0.9 ratio, respectively.
